Data as given in article PMC8181125.

Columns and labels:
Conditions in all cases: glycan lost; control: wild type
[1] = Western blot of full-length PDGF-C in conditioned medium
[2] = Western blot of core domain in conditioned medium
[3] = Western blot of transfected HEK293A cell lysates
[4] = immunofluorescence colocalisation with ER marker ERP72, HEK293A
[5] = immunofluorescence with Golgi marker TGN46, HEK293A

| Substance | expression_or_secretion [1] | other: proteolytic processing [2] | expression_or_secretion [3] | localisation_or_trafficking [4] | localisation_or_trafficking [5] |
| --- | --- | --- | --- | --- | --- |
| PDGF-C (full-length, PC-FL): N55A + N254A | no change | abolishes | no change |  |  |
| PDGF-C (full-length, PC-FL): N55A | no change | no change | no change | no change | no change |
| PDGF-C (full-length, PC-FL): N25A + N55A | no change |  | no change |  |  |
| PDGF-C (full-length, PC-FL): triple NA mutant | no change | abolishes | no change |  |  |
| PDGF-C (full-length, PC-FL): N25A | no change | no change | no change | no change | no change |
| PDGF-C (full-length, PC-FL): N254A | no change |  | no change | no change | no change |
| PDGF-C (full-length, PC-FL): N25A + N254A | no change | abolishes | no change |  |  |
